Test results: patent CN112125974A (BIORAY LABORATORIES INC, dated 2020)

T1: BCMA on BCMA+ target cells (NCI-H929; K562-BCMA) (human, UniProt Q02223 1-184)
T1 sequence (looked up): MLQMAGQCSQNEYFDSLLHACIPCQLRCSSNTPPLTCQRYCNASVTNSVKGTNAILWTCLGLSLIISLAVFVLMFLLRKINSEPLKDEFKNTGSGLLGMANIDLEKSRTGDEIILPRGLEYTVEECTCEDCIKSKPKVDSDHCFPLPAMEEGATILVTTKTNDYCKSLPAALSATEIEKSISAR

B1: 2073嵌合抗原受体 (CAR-BCMA-2073, on T cells CAR-BCMA-2073-T) (other)
chain: DIVMTQSPDSLAVSLGERATINCKSSQNVLYSSNNRNYLAWYQQKPGQPPKLLIYWASTRESGVPDRFSGSGSGTDFTLTISSLQAEDVAVYYCQQYYGSVVTFGGGTKVEIKGSTSGSGKPGSGEGSTKGQVQLQQSGPGLVKPSQTLSLTCAISGDSVSSNSAAWNWIRQSPSRGLEWLGRTYYRSKWYNDYALSVKSRITINPDTSKNQFSLQLNSVTPEDTAVYYCARGASSFDYWGQGTLVTVSSTTTPAPRPPTPAPTIASQPLSLRPEACRPAAGGAVHTRGLDFACDIYIWAPLAGTCGVLLLSLVITLYCKRGRKKLLYIFKQPFMRPVQTTQEEDGCSCRFPEEEEGGCELRVKFSRSADAPAYKQGQNQLYNELNLGRREEYDVLDKRRGRDPEMGGKPRRKNPQEGLYNELQKDKMAEAYSEIGMKGERRRGKGHDGLYQGLSTATKDTYDALHMQALPPR
B2: 2079嵌合抗原受体 (CAR-BCMA-2079, on T cells CAR-BCMA-2079-T) (other)
chain: QSALTQPASVSGSPGQSITMSCTGTSSDVGGYKYVSWYQQHPGKAPQLMIHDVRERPSGVSNRFSGSKSGNTASLTISGLQAEDEADYYCSSFTNNSTFVFGTGTKVTVLGSTSGSGKPGSGEGSTKGQVQLQQSGPGLVKPSQTLSLTCAISGDSVSSNSAAWNWIRQSPSRGLEWLGRTYYRSTWYNDYAVSVKSRITINPDTSKNQFSLQLNSVTPEDTAVYYCARGTGTLDYWGQGTLVTVSSTTTPAPRPPTPAPTIASQPLSLRPEACRPAAGGAVHTRGLDFACDIYIWAPLAGTCGVLLLSLVITLYCKRGRKKLLYIFKQPFMRPVQTTQEEDGCSCRFPEEEEGGCELRVKFSRSADAPAYKQGQNQLYNELNLGRREEYDVLDKRRGRDPEMGGKPRRKNPQEGLYNELQKDKMAEAYSEIGMKGERRRGKGHDGLYQGLSTATKDTYDALHMQALPPR
B3: 抗BCMA单链抗体2(命名为抗体2077) (scFv, V domains shown)
VH: QVQLQQSGPGLVKPSQTLSLTCAISGDSVSSNSAAWNWIRQSPSRGLEWLGRTYYRSKWYNDYAVSVKSRITINPDTSKNQFSLQLNSVTPEDTAVYYCARLAYEVRSTDWYFDLWGRGTLVTVSS
VL: QPVLTQPPSVSEAPRQRVTISCSGSSSNIGNNAVNWYQQLPGKAPKLLIYYDDLLPSGVSDRFSGSKSGTSASLAISGLQSEDEADYYCAAWDDSLNGWVFGGGTKLTVL
B4: 抗BCMA单链抗体3(命名为抗体2079) (scFv, V domains shown)
VH: QVQLQQSGPGLVKPSQTLSLTCAISGDSVSSNSAAWNWIRQSPSRGLEWLGRTYYRSTWYNDYAVSVKSRITINPDTSKNQFSLQLNSVTPEDTAVYYCARGTGTLDYWGQGTLVTVSS
VL: QSALTQPASVSGSPGQSITMSCTGTSSDVGGYKYVSWYQQHPGKAPQLMIHDVRERPSGVSNRFSGSKSGNTASLTISGLQAEDEADYYCSSFTNNSTFVFGTGTKVTVL
B5: 抗BCMA单链抗体4(命名为抗体2082) (scFv, V domains shown)
VH: QVQLQQSGPALVKPSQTLSLTCVISGDSVSSNSASWTWIRQSPSRGLEWLGRTYRRADRWYYDYALSLNSRLTINPDTSKNHFALHLTSVTPEDTAVYYCSREYWGGSFDVWGQGTTVTVSS
VL: QPVLTQPASVSGSPGQSITISCTGTSSDVGGYDYVSWYQQHPGKAPKLMLYEVNNRPSGVSNRFSGSKSGNTASLTISGLQAEDEGAYYCSSYTSSNTHVVFGGGTQLTVL

How the values were obtained:
biotin-BCMA抗原 (human) = biotin-BCMA抗原 (human) (UniProt Q02223); assay: flow cytometry, T cells 72 h after infection, 0.2 μg/ml biotin-BCMA, APC-Streptavidin
[1] = molecular target: T1, BCMA on BCMA+ target cells (NCI-H929; …); assay: cell-based or functional assay
人BCMA(hBCMA)蛋白 (human) = 人BCMA(hBCMA)蛋白 (human) (UniProt Q02223); assay: phage ELISA, 0.5 μg/ml hBCMA coated, phage supernatant, anti-M13-HRP

Binder	CAR-BCMA阳性率 (percent of T cells stained by biotin-BCMA) (biotin-BCMA抗原 (human)) [%]	proportion of target cells K562-BCMA in total cells, co-culture E:T 7:1, 0 h [1] [%]	proportion of target cells K562-BCMA in total cells, co-culture E:T 7:1, 48 h [1] [%]	proportion of target cells NCI-H929 in total cells, co-culture E:T 5:1, end [1] [%]	proportion of target cells NCI-H929 in total cells, co-culture E:T 5:1, start [1] [%]	OD450 (人BCMA(hBCMA)蛋白 (human)) [OD450]
B1	45.1	8.69	6.1	0.435	15.4	
B2	22.3	9.28	8.69	6.63	11.3	
B3						> 1.5
B4						> 1.5
B5						> 1.5
